Assays:
[1] = tested on: P. gingivalis; assay: Release of antibiotics from self-assembling peptide gels: impact on bacterial growth (turbidity OD600); type: cell-based; details: antibiotic 150 mg/ml released from self-assembling peptide gels (15 mg/ml), anaerobic, OD600 normalized to gel without antibiotic, over 120 hours
Protocol: (§1) The following figures and examples are supposed to illustrate and further explain, but not to limit the invention. Any references cited herein are herewith fully incorporated. • Fig. 1: Bacterial density after release of antibiotics (150 mg/ml) from self-assembling peptide gels (15 mg/ml), and the impact thereof to the growth of P. gingivalis (A-C) and S. sanguinis (D-F). Circles: metronidazol, stars: tetracycline, triangle: ciprofloxacin, squares: doxycycline hyclate; control: gel without API A/D P11-4 gel. B/E P11-13/14 gel. C/F P11-28/29 gel • Fig. 2: Cross section of demineralized tooth after incubation with polymeric P11-4. […] 100µl peptide / well, c= 20 mg/ml, in PBS, quantified with Qubit R Protein Assay Ref: Q33211. […] 100 µl peptide / well, c= 20 mg/ml, in PBS, quantified with Qubit R Protein Assay Ref: Q33211. […] Since NO3- are monovalent ions, and ionic strength of the solution was below 130 mM, P11-8 self-assembling was slowed down. […] The cell/SAP-gel/ dentin was then incubated for 8 days and visually assessed resulting in migration of up to 5 mm. […]
(§2) Furthermore 100 uL/well of a defined anaerobic P. gingivalis or aerobic S. anguines bacterial culture ([…] e.g. 990 µl BHI medium, 10 µl 10^8 CFU/ml bacteria suspension) were added onto the gels. Impact on growth was assessed by measuring turbidity at OD600 nm. […]

[2] = tested on: S. sanguinis; assay: as above; type: cell-based; details: antibiotic 150 mg/ml released from self-assembling peptide gels (15 mg/ml), aerobic, OD600 normalized to gel without antibiotic, over 120 hours
Protocol: as §1, §2

[3] = Stability of P11 peptide gels in absence of cells or bacteria (peptide release into supernatant, Qubit Protein Assay); type: physicochemical; set-up: unit not given here; details: 7 days, 100µl peptide / well, c= 20 mg/ml, in PBS
Protocol: (§3) The following figures and examples are supposed to illustrate and further explain, but not to limit the invention. Any references cited herein are herewith fully incorporated. • Fig. 1: Bacterial density after release of antibiotics (150 mg/ml) from self-assembling peptide gels (15 mg/ml), and the impact thereof to the growth of P. gingivalis (A-C) and S. sanguinis (D-F). Circles: metronidazol, stars: tetracycline, triangle: ciprofloxacin, squares: doxycycline hyclate; control: gel without API A/D P11-4 gel. B/E P11-13/14 gel. C/F P11-28/29 gel • Fig. 2: Cross section of demineralized tooth after incubation with polymeric P11-4. […] 100µl peptide / well, c= 20 mg/ml, in PBS, quantified with Qubit R Protein Assay Ref: Q33211. […] 100 µl peptide / well, c= 20 mg/ml, in PBS, quantified with Qubit R Protein Assay Ref: Q33211. […] Since NO3- are monovalent ions, and ionic strength of the solution was below 130 mM, P11-8 self-assembling was slowed down. On the other hand self-assembling kinetic of P11-8 with DMEM and NaCl solution is very similar. […] Human Periodontal Ligament cells were placed in a cell pool (A) and the SAP gel (C) placed on the human dentin (B). The cell/SAP-gel/ dentin was then incubated for 8 days and visually assessed resulting in migration of up to 5 mm. Scale bar: 1 mm

[4] = tested on: Human Periodontal Ligament cells; assay: Cell migration on a periodontal ligament model (cell pool / SAP gel / human dentin); type: cell-based; details: 15 mg/ml gel on human dentin, 8 days of incubation, visually assessed
Protocol: as §3

[5] = Mechanical properties (storage modulus G') of gels in different ion and buffer systems; type: physicochemical; details: compared with Tris-NaCl
Protocol: as §3

[6] = tested on: bacteria; assay: Degradation of P11-4 peptide gel in presence of bacteria (Qubit Protein Assay); type: physicochemical; details: 100 µl peptide / well, c= 20 mg/ml, in PBS
Protocol: as §3

Molecule | inhibition of bacterial growth (relative bacterial density) [1] | inhibition of bacterial growth (relative bacterial density) [2] | release of peptide into the supernatant [3] | migration [4] | storage modulus G' ([5]; gel formed in DMEM (pH 7.4, ionic strength 130 mM)) | storage modulus G' ([5]; gel formed in artificial saliva (Tris 120 mM, Ca(NO3) 4 mM, KH2PO4 2.4 mM, pH 7.2), DMEM, Tris MgSO4) | stability (time the peptide is stable) [6]
Cc1ncc([N+](=O)[O-])n1CCO [metronidazole] | low effectivity in most systems at this concentration | low effectivity in most systems at this concentration | – | – | – | – | –
QQRFEWEFEQQ [P11-4, self-assembling peptide] | – | – | less than one | up to 5 mm | lower storage modulus | storage moduli between G'(NaCl and MgSO^4) was reached | more than 3 days

— patent EP3284477A1, “COMPOSITION COMPRISING SELF-ASSEMBLING PEPTIDES FOR USE IN TREATMENT OF GINGIVITIS, PERIODONTITIS AND/OR PERI-IMPLANTITIS” (Credentis AG, priority 2016, dated 2018)
